Data on two substances can be found in publication PMC7994445.

Test [1] deals with PfActin-1 filaments (Plasmodium falciparum) (UniProt Q8I4X0).
Test [2] addresses rabbit skeletal actin filaments (rabbit) (UniProt P68135).
Test [3] has as its target smooth muscle actin filaments (UniProt P62736).

Sequence of Full-length phosphorylated smooth muscle myosin (P10587 whole entry, looked up): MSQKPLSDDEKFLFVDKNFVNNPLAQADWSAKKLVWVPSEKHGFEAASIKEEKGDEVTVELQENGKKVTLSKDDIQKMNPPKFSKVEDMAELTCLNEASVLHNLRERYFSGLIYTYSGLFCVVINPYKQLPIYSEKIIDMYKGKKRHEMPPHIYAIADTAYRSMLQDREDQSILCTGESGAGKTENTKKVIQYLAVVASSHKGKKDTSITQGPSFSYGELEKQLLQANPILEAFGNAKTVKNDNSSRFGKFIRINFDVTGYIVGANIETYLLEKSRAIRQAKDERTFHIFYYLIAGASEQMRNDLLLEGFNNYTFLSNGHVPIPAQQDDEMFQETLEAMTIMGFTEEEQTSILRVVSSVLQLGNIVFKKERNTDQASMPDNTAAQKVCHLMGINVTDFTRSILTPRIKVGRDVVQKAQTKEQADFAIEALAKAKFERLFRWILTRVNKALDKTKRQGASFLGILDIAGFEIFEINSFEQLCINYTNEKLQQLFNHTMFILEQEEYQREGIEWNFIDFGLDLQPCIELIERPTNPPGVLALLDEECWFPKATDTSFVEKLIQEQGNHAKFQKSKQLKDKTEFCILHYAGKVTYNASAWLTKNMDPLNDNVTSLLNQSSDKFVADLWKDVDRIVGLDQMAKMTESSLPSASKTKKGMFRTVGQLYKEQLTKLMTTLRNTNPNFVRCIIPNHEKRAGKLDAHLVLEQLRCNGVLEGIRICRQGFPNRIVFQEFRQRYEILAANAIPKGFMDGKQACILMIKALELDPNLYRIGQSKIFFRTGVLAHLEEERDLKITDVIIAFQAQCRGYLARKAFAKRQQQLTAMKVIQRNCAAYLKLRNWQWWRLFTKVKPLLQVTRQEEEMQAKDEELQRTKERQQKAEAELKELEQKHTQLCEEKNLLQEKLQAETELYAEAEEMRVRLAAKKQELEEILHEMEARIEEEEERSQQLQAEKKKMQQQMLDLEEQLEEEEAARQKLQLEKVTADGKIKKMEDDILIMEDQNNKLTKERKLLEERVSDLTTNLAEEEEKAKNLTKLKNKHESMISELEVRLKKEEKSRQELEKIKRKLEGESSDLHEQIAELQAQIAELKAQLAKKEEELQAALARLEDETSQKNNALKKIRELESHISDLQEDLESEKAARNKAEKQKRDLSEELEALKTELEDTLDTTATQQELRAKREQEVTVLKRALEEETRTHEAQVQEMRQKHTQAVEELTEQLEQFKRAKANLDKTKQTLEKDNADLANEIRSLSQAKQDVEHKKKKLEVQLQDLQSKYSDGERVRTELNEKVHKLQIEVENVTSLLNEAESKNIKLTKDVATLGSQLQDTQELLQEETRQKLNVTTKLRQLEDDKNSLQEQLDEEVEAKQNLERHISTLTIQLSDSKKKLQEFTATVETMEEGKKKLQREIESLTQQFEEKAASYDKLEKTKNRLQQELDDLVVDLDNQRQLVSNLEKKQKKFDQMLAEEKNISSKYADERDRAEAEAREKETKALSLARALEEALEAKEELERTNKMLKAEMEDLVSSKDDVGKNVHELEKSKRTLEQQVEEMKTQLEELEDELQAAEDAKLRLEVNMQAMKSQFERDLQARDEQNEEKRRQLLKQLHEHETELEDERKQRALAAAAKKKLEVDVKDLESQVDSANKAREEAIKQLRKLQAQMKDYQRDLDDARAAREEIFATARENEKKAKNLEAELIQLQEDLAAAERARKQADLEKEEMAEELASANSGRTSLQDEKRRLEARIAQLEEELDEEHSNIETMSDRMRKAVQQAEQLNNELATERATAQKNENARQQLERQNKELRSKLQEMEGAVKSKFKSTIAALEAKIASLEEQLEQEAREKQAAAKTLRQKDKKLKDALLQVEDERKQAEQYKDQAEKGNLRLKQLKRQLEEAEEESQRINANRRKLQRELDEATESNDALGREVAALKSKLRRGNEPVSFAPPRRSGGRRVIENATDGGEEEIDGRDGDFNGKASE

In test [1], “PfMyoA with a C-terminal biotin tag (from UniProt Q8IDR3 1-818) (complex)” returned an in vitro motility speed, JAS-stabilized PfAct1 filaments moved by myosin held on the coverslip, 30 °C of 3.55 µm/s and an in vitro motility speed, unstabilized PfAct1 filaments (no JAS) moved by myosin held on the coverslip, 30 °C of 3.98 µm/s. In addition, the in vitro motility speed, skeletal muscle actin filaments moved by myosin held on the coverslip, 30 °C in test [2] came to 3.85 µm/s. For the same substance, in test [3], the in vitro motility speed, smooth muscle actin filaments moved by myosin held on the coverslip, 30 °C stood at 4.21 µm/s.

Regarding “Full-length phosphorylated smooth muscle myosin (from UniProt P10587 1-1979) (complex)”, the in vitro motility speed, JAS-stabilized PfAct1 filaments moved by myosin adhered to the coverslip, 30 °C in test [1] was found to be 0.53 µm/s. Besides, the in vitro motility speed, skeletal muscle actin filaments moved by myosin adhered to the coverslip, 30 °C in test [2] came to 0.62 µm/s. Further, the in vitro motility speed, smooth muscle actin filaments moved by myosin adhered to the coverslip, 30 °C in test [3] was 0.51 µm/s.
